According to patent publication US20250197505A1 (DREN BIO, published 2025):

Target: T1, human CD94 expressed on cells (human primary NK cells in PBMCs; HEK cells expressing human CD94) (human, UniProt Q13241 1-179)
T1 construct: whole, on cells; also called KLRD1; Natural killer cells antigen CD94
T1 sequence (looked up): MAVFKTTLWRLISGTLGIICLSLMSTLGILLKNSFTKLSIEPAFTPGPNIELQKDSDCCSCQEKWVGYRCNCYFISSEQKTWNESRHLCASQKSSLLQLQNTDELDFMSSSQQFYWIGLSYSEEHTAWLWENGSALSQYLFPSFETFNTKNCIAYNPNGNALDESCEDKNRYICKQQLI
Experiment: flow cytometry titration (100 nM to 0.046 nM) on primary NK cells in healthy donor PBMCs; human primary NK cells, flow cytometry titration
Description: Peripheral blood monocuclear cells (PBMCs) of healthy donor HD-40 were used for antibody staining. 18H3 antibody was titrated from 100 nM to 0.046 nM in 1:3 dilutions and incubated with PBMCs. CD3 and CD56 antibodies were used to identify NK cells on the flow scatter. 18H3 antibody binding on […] and CD56 bright NK cells was used to assess affinity of 18H3. Titration curves and EC50 were generated using Graphpad Prism. […] Human IgG1 isotype control with secondary antibody (hIgG1) and goat (Fab)2 fragment anti-human Fcy-specific secondary antibody AF647 only (2ndary Ab) were used as controls.
Healthy donor PBMCs were seeded in 96 well plates at a density of 100,000 cells per well, incubated with human Fc block (Biolegend) and cell viability dye (Thermo Fisher) for 30 minutes on ice and protected from light. […] After incubation, the cells received a final wash in FACS buffer before quantification on the Cytoflex (Beckman Coulter). All data acquisition and fluorescence compensation were performed using CytoFlex (Beckman Coulter, Atlanta, GA). […] CD94 expression was then quantified on the CD3−CD56+NK cell population. […]
The affinity of the antibody clones was also assessed by flow cytometry analysis.

EC50: 2.6 nM
B1: anti-CD94 antibody clone 18H3 (antibody, V domains shown)
VH: EVQLVQSGAEVKKPGESLKISCKGSGYRFTSYWIGWVRQMPGKGLEWMGIIYPGDSDTRYSPSFQGQVIISADKSITTAFLQWSSLKASDTAMYYCARPFDYGGSPGYFDYWGQGTLVTVSS
VL: DIQMTQSPSTLSASVGDRVTITCRASQSIRSWLAWYQQKPGKAPKLLIYKASSLESGVPSRFSGSGSGTEFTLTISSLQPDDFATYYCQQYNTFWTFGQGTKVEIK
notes: also called 18H3-AF647
